# Results as given in patent US20090269346A1 (RAPTOR PHARMACEUTICAL, published 2009).
# B1: wild-type RAP d3 (ligand)
# chain: LDRLRRVSHQGYSTEAEFEEPRVIDLWDLEQSANLTDKELEAFREELKHFEAKIEKHNHYQKQLEIAHEKLRHAESVGDGERVSRSREKHALLEGRTKELGYTVKKHLQDLSGRISRAR
# notes: expressed in E. coli from pET30(+)a; not shown: vector-encoded N-terminal tags of pET30(+)a (hexahistidine and S-peptide, as stated for the CR constructs)
# Legend:
# Assay in all cases: solid-phase assay, coated CR protein, anti-RAP, OD450
# LRP2 CR89 = biological target: T1, LRP2 CR89 (human, UniProt P98164 1025-1102)
# T1 construct: domain: CR8 and CR9; also called YVWR; L2 CR89; not shown: N-terminal hexahistidine and S-peptide from pET30(+)a
# Experimental: (§1) Solid phase binding assays-Purified, refolded CR protein (1 μg) was bound to Nunc Maxisorp™ 96-well plates in TBS pH 8 supplemented with 5 mM CaCl₂ (TBSC) overnight at 4° C. Wells were washed with TBSC and then blocked with TBSC containing 2% bovine serum albumin (BSA). RAP ligands were then incubated with the immobilized receptor at a range of concentrations for 2 hours in the above blocking buffer supplemented with 0.05% Tween-20 at room temperature. Control wells contained no added ligand. As an additional control, to determine whether the absence of calcium affected binding, 10 mM EGTA was included in the incubation medium for some samples. Wells were washed with TBSTC and bound ligands detected with polyclonal anti-RAP (BP41/42, 1:1,000, BioMarin). Excess primary antibody was removed and wells washed before incubation with the secondary antibody, HRP-conjugated goat anti rabbit IgG (Bio-Rad). After washing, TMB substrate solutions (Bio-Rad) were added to detect HRP. Color development was stopped with 1N HCl. Absorption at 450 nm was measured with a microplate spectrophotometer (Molecular Devices). Data were plotted and Kd values derived by non-linear regression with the assumption of single-site binding (GraphPad Prism).
# (§2) Additional assays were performed to assess the binding of wild-type RAP d3 (SEQ ID NO: 92) to each CR pair or set of overlapping pairs was then measured by solid-phase assay (FIG. 5B). Diluted samples were incubated with each test protein, immobilized in multiwell plates. Binding assays were performed as described in Methods. Two independent experiments were performed with triplicate wells for each sample. Means and standard deviations were calculated from the combined values from both experiments and plotted against ligand concentration. Curves were fitted using non-linear regression with a single-site binding model (GraphPad Prism). Kd values with standard deviations were derived from the fitted curves. In all cases, 10 mM EGTA removed >85% of the mean binding signal at the highest concentration of ligand tested.
# VLDLR CR6-8 = biological target: T2, VLDLR CR6-8 (human, UniProt P98155 235-358)
# T2 construct: range 235-358; also called V CR6-8; not shown: N-terminal hexahistidine and S-peptide from pET30(+)a
# Experimental: as §1, §2
# LRP1 CR3-5 = biological target: T3, LRP1 CR3-5 (human)
# T3 construct: range 852-973; Amplified from human cDNA; also called L1 CR3-5
# Experimental: as §1, §2
# T1 sequence (P98164 1025-1102): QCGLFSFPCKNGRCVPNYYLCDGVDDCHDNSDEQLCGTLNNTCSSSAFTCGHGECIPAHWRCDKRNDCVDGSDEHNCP
# T3 sequence (Q07954 852-973): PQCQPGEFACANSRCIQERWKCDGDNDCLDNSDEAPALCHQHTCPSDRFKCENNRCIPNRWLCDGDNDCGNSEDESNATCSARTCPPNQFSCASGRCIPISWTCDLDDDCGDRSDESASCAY
binder,measurement,setting,value
B1,Kd,LRP2 CR89,> 300 nM
same,Kd,VLDLR CR6-8,> 300 nM
same,Kd,LRP1 CR3-5,11 nM
